The values that follow come from US20080227698A1, “OLIGOPEPTIDES FOR TREATMENT OF OSTEOPOROSIS AND OTHER BONE DISEASES AND METHODS THEREOF” (Washington University, priority 2005, published 2008).

The subject of one test is Wnt signaling. Briefly: Wnt signalling TCF/LEF-Luc assay in HEK293 cells (Wnt3A conditioned medium plus Dkk1). Conditions: Wnt3A conditioned medium plus Dkk1 protein at 10 nM. The class given is cell-based. Here is the method: HEK293 cells were plated into six-well plates. For each well, […] of the TOP-[…] luciferase construct (Upstate Biotechnology) was cotransfected with 0.8 μg Mesd-expressing vector, 0.8 μg Mesd mutant-expressing vector, or empty vector. A β-galactosidase-expressing vector (Promega, Madison, Wis.) was included as an internal control for transfection efficiency. After 48 hours, cells were lysed and both luciferase and β-galactosidase activities were determined with enzyme assay kits (Promega). The luciferase activity was determined with a luminometer using the Dual Luciferase Assay system (Promega). Luciferase activity was normalized to the activity of the P-galactosidase.

In test [1] the target is T1, LRP6 (Homo sapiens, UniProt O75581). Put plainly: ^125I-Mesd cell surface ligand binding to LRP6-transduced HT1080 cells. More on the design: plasmid pCS-Myc-hLRP6 containing the full-length human LRP6 cDNA; HA; expressed in transfected cells; host or cells: human HT1080 cells, stably transduced (pLNCX2 retroviral vector). Conditions: for Binding of Mesd truncation mutants to cell surface LRP6: LRP6-transduced HT1080 cells, 5 nM ^125I-labelled, 3 hours at 4° C. for Mesd (150-195). On the procedure:
To examine whether Mesd binds with high affinity to […] at the cell surface, cell surface ligand binding experiments were performed with cells stably transduced with LRP6 cDNA. Human HT1080 cells, which express undetectable levels of LRP6, were transduced with a viral vector alone (pLNCX2) or with vector containing LRP6 cDNA (Li, Y., Oncogene 23: 9129-9135, 2004) and used for ^125I-Mesd binding (FIG. 1A). ^125I-Mesd (5 nM) reached maximal binding after 2 hours incubation at 4° C. with LRP6-expressing HT1080 cells (FIG. 1A).
(A) Time course of ^125I-Mesd (5 nM) binding to LRP6-transduced HT1080 cells and the control cells. Assay was carried out for the indicated periods at 4° C. in the absence (total) or presence of 500 nM Mesd (non-specific). (B) Saturation binding of ^125I-Mesd to LRP6-transduced HT1080 cells and the control cells. Assay was carried out at indicated concentrations for 3 hours at 4° C. in the absence (total) or presence (non-specific) of 500 nM Mesd. (C) Scatchard plots of data in B. All values are the average of triple determinations with the s.d. indicated by error bars.
(§1) Cells (2×10^5) were seeded into 12-well dishes 1 day prior to assay. Ligand-binding buffer (minimal Eagle's medium containing 0.6% BSA with a different concentration of radioligand, 0.6 ml/well) was added to cell monolayers, in the absence or the presence of 500 nM unlabeled RAP or 500 nM unlabeled Mesd, followed with incubation for 0-4 hours at 4° C. Thereafter, overlying buffer containing unbound ligand was removed, and cell monolayers were washed and lysed in low-SDS lysis buffer (62.5 mM Tris-HCl pH 6.8, 0.2% SDS, 10% v/glycerol) and counted.

The target in test [2] is T1, LRP6. Briefly: LRP6-mediated ^125I-Mesd degradation in LRP6-transduced HT1080 cells. More on the design: plasmid pCS-Myc-hLRP6 containing the full-length human LRP6 cDNA; HA; expressed in transfected cells; host or cells: human HT1080 cells, stably transduced (pLNCX2 retroviral vector). The test is classed as cell-based. Conditions: 500 nM unlabeled competitor, ^125I-Mesd 5 nM, 4 hours at 37° C. Here is the method:
Ligand degradation was performed using the methods as described (Li, Y., J. Biol. Chem. 275: 17187-17194, 2000). Briefly, 2×10^5 cells were seeded into 12-well dishes 1 day prior to assay. Pre-warmed assay buffer (minimal Eagle's medium containing 0.6% BSA with radioligand, 0.6 ml/well) was added to cell monolayers in the absence or the presence of unlabeled 500 nM RAP or 500 nM Mesd, followed by incubation for 4 hours at 37° C. Thereafter, the medium overlying the cell monolayers was removed and proteins were precipitated by addition of BSA to 10 mg/ml and trichloroacetic acid to 20%. Degradation of radioligand was defined as the appearance of radioactive fragments in the overlying medium that were soluble in 20% trichloroacetic acid. Kinetic analysis of endocytosis LRP6-transduced HT1080 cells were plated in 12-well plates at a density of 2×10^5 cells/well and used after overnight culture. Cells were rinsed twice in ice-cold assay buffer (minimal Eagle's medium containing 0.6% BSA), and ^125I-anti-HA IgG was added at 1 nM final concentration in cold assay buffer (0.5 ml/well). The binding of ^125Ianti- HA IgG was carried out at 4° C. for 90 minutes with gentle rocking. Unbound ^125I-anti-HA IgG was removed by washing cell monolayers three times with cold assay buffer. Ice-cold stop/strip solution (0.2 M acetic acid, pH 2.6, 0.1 M NaCl) was added to one set of plates without warming up and kept on ice. The remaining plates were then placed in a 37° C. water bath and 0.5 ml assay buffer prewarmed to 37° C. was quickly added to cell monolayers to initiate internalization. After each time point, the plates were quickly placed on ice and the assay buffer was replaced with cold stop/strip solution. ^125I-anti-HA IgG that remained on the cell surface was stripped by incubation of cell monolayers with cold stop/strip solution for a total of 20 minutes (0.75 ml for 10 minutes, twice) and counted. Cell monolayers were then solubilized with low-SDS lysis buffer and counted. […] The fraction of internalized ^125I-anti-HA IgG after each time point was calculated and plotted. […]

Test [3] concerns the target T1, LRP6. Put plainly: ^125I-RAP binding to LRP6-transduced HT1080 cells and control cells. Also noted: plasmid pCS-Myc-hLRP6 containing the full-length human LRP6 cDNA; HA; expressed in transfected cells; host or cells: human HT1080 cells, stably transduced (pLNCX2 retroviral vector). On the procedure:
as §1
Receptor-associated protein (RAP) binds with high affinity to LRP, megalin, VLDLR and apoER2, and with a lower affinity to the LDLR (Bu, G., Int. Rev. Cytol. 209, 79-116. 2001). To determine whether RAP and Mesd bind to identical, overlapping, or different sites on the receptors, binding and competition analysis of these two chaperones with HT1080 cells stably expressing LRP6 was performed.
In FIG. 8A, binding of ^125I-RAP (5 nM) to LRP6-transduced HT1080 cells and the control cells was carried out for 4 hours at 4° C. in the absence (total) or presence of 500 nM RAP, or 500 nM Mesd. In FIG. 8B, binding of ^125I-Mesd (5 nM) to LRP6-transduced HT1080 cells was carried out for 2 hours at 4° C. in the absence (total) or presence of various concentrations of RAP or 500 nM Mesd. (C) LRP6-mediated ^125I-Mesd (5 nM) degradation was carried out for 4 hours at 37° C. in the absence or presence of 500 nM Mesd or 500 nM RAP. Values are the means of triple determinations with the s.d. indicated by error bars.

Test [4] has as its target T1, LRP6. Briefly: ^125I-DKK1 binding to LRP6-transduced HT1080 cells. Conditions: 500 nM competitor, ^125I-DKK1 5 nM, 3 hours at 4° C. Also noted: plasmid pCS-Myc-hLRP6 containing the full-length human LRP6 cDNA; HA; expressed in transfected cells; host or cells: human HT1080 cells, stably transduced (pLNCX2 retroviral vector). Here is the method:
as §1
RAP is a receptor antagonist for members of the LDLR family, and is able to inhibit the binding of most known ligands of the LDLR family members. […] In these experiments, Serum-free conditioned medium was harvested from HEK293 cells transiently transfected with cDNA for human Myc-DKK1 and allowed to bind to LRP6-transduced HT1080 cells (B,C) and control cells (A) in the absence (A,B) or presence (C) of 1 μM Mesd. Cell-surface-bound Myc-tagged DKK proteins were fixed and detected by immunofluorescence staining with anti-Myc antibody. […] Binding of 125I-DKK1 (5 nM) to LRP6-transduced HT1080 cells or the control cells was carried out for 3 hours at 4° C. in the absence (total) or presence of 500 nM RAP or 500 nM Mesd. […] LRP6-mediated 125I-Mesd (5 nM) degradation was carried out for 4 hours at 37° C. in the absence or presence of 500 nM RAP or 500 nM Mesd. Values are the means of triple determinations with the s.d. indicated by error bars. Bar, 10 μm.

The target in test [5] is T2, LRP6 on LRP6-transduced HT1080 cells (HA-tagged) (UniProt O75581 20-1613, limits assumed).
T2 construct: whole, on cells; also called mature LRP6; cell surface LRP6
Put plainly: competition against 125I-DKK1 for LRP6 (FIG. 10D).

Test [6] deals with T3, human Myc-tagged LRP5 on transiently transfected HEK293 cells (human, UniProt O75197 32-1615).
T3 construct: whole, on cells; also called mature LRP5; pcDNA3.1C-Myc-hLRP5
Briefly: competition against 125I-Mesd for LRP5 (FIG. 10A).

T1 sequence (O75581 20-1613): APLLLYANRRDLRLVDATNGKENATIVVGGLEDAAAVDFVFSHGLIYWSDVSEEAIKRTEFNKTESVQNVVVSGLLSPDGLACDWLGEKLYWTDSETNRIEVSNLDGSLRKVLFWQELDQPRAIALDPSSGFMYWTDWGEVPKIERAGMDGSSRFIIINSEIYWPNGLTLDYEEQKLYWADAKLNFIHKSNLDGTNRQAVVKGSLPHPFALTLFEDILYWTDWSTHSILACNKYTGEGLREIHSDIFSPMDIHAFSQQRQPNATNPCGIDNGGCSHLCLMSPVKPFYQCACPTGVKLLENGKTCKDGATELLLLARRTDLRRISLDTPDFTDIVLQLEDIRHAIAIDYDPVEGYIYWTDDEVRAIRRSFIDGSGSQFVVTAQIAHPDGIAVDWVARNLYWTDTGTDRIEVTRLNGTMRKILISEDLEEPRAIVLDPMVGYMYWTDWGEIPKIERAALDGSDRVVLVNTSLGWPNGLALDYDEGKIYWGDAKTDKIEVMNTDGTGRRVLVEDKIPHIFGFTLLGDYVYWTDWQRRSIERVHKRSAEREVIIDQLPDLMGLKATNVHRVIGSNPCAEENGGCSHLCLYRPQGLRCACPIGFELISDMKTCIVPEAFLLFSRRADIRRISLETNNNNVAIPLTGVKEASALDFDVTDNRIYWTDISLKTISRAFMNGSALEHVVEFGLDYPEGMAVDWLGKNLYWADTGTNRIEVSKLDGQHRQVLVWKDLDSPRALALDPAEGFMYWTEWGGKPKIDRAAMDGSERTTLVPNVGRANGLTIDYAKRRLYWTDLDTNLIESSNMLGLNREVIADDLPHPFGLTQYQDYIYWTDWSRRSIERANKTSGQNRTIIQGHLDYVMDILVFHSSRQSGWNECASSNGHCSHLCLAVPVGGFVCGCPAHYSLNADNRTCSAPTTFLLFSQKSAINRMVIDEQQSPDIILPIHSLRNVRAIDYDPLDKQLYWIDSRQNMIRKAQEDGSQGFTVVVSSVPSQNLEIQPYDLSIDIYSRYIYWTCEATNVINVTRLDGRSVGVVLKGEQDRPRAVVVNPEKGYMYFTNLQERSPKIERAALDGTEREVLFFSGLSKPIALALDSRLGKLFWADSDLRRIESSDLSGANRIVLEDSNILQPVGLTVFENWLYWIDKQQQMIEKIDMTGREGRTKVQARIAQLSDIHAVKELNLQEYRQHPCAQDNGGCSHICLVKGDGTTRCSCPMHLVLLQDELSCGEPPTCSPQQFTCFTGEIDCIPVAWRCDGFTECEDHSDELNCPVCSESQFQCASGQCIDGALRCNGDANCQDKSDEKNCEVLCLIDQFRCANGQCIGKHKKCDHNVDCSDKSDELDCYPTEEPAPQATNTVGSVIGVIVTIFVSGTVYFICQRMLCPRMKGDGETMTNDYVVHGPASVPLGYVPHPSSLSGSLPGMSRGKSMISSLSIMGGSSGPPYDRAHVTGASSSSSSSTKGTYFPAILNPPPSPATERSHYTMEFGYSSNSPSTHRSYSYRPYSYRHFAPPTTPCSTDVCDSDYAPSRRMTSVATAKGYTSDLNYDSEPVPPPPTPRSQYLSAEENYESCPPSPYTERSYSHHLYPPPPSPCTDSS
T3 sequence (O75197 32-1615): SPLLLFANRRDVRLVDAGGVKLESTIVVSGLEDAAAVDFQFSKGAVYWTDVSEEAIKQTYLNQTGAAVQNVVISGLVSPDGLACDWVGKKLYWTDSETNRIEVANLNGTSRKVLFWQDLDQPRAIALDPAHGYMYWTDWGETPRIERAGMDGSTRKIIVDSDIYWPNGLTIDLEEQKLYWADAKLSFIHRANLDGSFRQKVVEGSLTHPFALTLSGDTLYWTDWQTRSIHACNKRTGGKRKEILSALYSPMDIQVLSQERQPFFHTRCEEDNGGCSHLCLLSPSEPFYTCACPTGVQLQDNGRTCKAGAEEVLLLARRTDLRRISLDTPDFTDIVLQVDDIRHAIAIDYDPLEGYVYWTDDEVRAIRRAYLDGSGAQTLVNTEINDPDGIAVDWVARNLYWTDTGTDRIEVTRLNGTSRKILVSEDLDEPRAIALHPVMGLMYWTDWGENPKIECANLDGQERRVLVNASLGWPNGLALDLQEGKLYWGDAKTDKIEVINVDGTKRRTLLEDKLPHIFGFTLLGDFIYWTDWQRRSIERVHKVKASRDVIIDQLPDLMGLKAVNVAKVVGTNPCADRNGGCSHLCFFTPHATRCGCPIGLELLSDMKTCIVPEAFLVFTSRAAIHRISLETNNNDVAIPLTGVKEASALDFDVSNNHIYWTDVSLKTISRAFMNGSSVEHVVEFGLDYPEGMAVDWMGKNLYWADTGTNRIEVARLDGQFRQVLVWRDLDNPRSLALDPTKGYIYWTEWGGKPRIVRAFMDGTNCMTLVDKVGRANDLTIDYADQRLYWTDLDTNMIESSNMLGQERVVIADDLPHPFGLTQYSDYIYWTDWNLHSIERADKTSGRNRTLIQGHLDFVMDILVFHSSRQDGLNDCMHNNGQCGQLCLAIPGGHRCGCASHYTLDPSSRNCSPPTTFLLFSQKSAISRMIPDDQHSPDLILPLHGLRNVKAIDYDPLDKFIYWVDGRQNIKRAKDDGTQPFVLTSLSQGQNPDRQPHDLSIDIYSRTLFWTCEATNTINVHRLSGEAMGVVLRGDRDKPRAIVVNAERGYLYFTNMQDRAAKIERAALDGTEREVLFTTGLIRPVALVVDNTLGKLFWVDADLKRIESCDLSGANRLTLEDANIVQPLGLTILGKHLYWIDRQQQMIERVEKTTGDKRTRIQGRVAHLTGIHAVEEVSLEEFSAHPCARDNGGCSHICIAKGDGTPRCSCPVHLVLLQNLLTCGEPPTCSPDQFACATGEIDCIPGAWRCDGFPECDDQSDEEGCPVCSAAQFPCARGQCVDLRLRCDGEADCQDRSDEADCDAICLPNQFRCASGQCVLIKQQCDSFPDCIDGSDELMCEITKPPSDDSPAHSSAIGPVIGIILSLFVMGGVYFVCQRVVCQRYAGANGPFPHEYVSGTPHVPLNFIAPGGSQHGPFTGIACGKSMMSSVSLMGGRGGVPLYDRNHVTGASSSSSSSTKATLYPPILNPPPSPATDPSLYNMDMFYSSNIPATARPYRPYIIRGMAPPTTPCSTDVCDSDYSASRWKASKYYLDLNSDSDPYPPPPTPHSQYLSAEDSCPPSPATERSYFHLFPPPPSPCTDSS
T2 sequence (O75581 20-1613 limits assumed): as the sequence (O75581 20-1613) above

Consider “KGGGSKEKNKTKPEKAKKKEGDRKPRASKEDNRAGSR [SEQ ID NO: 21]”, for which, in the test with Wnt signaling, the “Restoring of Wnt signaling inhibited by Dkk1 (luciferase activity)” value was “at least partially restoring Wnt signaling”.
For the molecule “QMYPGKGGGSKEKNKTKPEKAKKKEGDPKPRASKEDNRAGSRREDL [SEQ ID NO: 22]”, the “Restoring of Wnt signaling inhibited by Dkk1 (luciferase activity)” value in the test with Wnt signaling is on record as “at least partially restoring Wnt signaling”. The “Binding of Mesd truncation mutants to cell surface LRP6” value (shortened to “Binding of Mesd truncation mutants”) with LRP6 [1] is “necessary and sufficient for LRP6 binding”.
As to “RAP: human recombinant 39 kDa receptor-associated protein, expressed in a GST expression vector [reference compound]”, the “Inhibition of ^125I-Mesd binding to cell surface LRP6” value with LRP6 [1] (500 nM unlabeled competitor, ^125I-Mesd 5 nM, 2 hours at 4° C.) is about 60%. The “Inhibition of ^125I-Mesd degradation” value with LRP6 [2] is “only partially”. The “Effect of excess unlabeled competitor on ^125I-RAP binding to control cells” value with LRP6 [3] (500 nM competitor, control cells expressing vector alone, 4° C.) is reported as “completely eliminated this binding”. Further, in the test with LRP6 [3] (^125I-RAP 5 nM, 4 hours at 4° C.), the “Increase of RAP binding in LRP6 expressing HT1080 cells compared to control cells” value is on record as about 20%. Moreover, the “Effect of excess unlabeled competitor on increased DKK1 binding” value with LRP6 [4] is “not”.

B1: MESD(12-195): truncated Mesd mutant lacking the N-terminal region (N-terminal 11 amino acids of mouse Mesd) (protein)
chain: RKKKDIRDYNDADMARLLEQWEKDDDIEEGDLPEHKRPSAPIDFSKLDPGKPESILKMTKKGKTLMMFVTVSGNPTEKETEEITSLWQGSLFNANYDVQRFIVGSDRAIFMLRDGSYAWEIKDFLVSQDRCAEVTLEGQMYPGKGGGSKEKNKTKPEKAKKKEGDRKPRASKEDNRAGSRREDL
modifications: left off: small tags and cut ends
As to B1, the “Binding of Mesd truncation mutants” value with LRP6 [1] is “no effect on LRP6 binding”.

B2: Mesd(12-155): truncated Mesd mutant lacking both the N-terminal and C-terminal regions (protein)
chain: RKKKDIRDYNDADMARLLEQWEKDDDIEEGDLPEHKRPSAPIDFSKLDPGKPESILKMTKKGKTLMMFVTVSGNPTEKETEEITSLWQGSLFNANYDVQRFIVGSDRAIFMLRDGSYAWEIKDFLVSQDRCAEVTLEGQMYPGK
modifications: left off: small tags and cut ends
notes: truncated Mesd mutant lacking both the N-terminal and C-terminal regions
Turning to B2, the “Binding of Mesd truncation mutants” value with LRP6 [1] is listed as “completely abolished LRP6 binding”.
On to KGGGSKEKNKTKPEKAKKKEGDPKPRASKEDNRAGSR (also called the oligopeptide) [Mesd oligopeptide KGGGSKEKNKTKPEKAKKKEGDPKPRASKEDNRAGSR (SEQ ID NO: 20)], for which the “fold reduction of ^125I-DKK1 binding” value in test [5] was over 2 fold. Also, the “fold reduction of ^125I-Mesd binding” value in test [6] is about 10 fold.
